Reference: patent publication US20120214741

B1: Rat brain HK-I (hexokinase-I), purified (protein)
chain: MIAAQLLAYYFTELKDDQVKKIDKYLYAMRLSDEILIDILTRFKKEMKNGLSRDYNPTASVKMLPTFVRSIPDGSEKGDFIALDLGGSSFRILRVQVNHEKNQNVSMESEIYDTPENIVHGSGTQLFDHVADCLGDFMEKKKIKDKKLPVGFTFSFPCRQSKIDEAVLITWTKRFKASGVEGADVVKLLNKAIKKRGDYDANIVAVVNDTVGTMMTCGYDDQQCEVGLIIGTGTNACYMEELRHIDLVEGDEGRMCINTEWGAFGDDGSLEDIRTEFDRELDRGSLNPGKQLFEKMVSGMYMGELVRLILVKMAKEGLLFEGRITPELLTRGKFNTSDVSAIEKDKEGIQNAKEILTRLGVEPSDVDCVSVQHICTIVSFRSANLVAATLGAILNRLRDNKGTPRLRTTVGVDGSLYKMHPQYSRRFHKTLRRLVPDSDVRFLLSESGTGKGAAMVTAVAYRLAEQHRQIEETLAHFRLSKQTLMEVKKRLRTEMEMGLRKETNSKATVKMLPSFVRSIPDGTEHGDFLALDLGGTNFRVLLVKIRSGKKRTVEMHNKIYSIPLEIMQGTGDELFDHIVSCISDFLDYMGIKGPRMPLGFTFSFPCHQTNLDCGILISWTKGFKATDCEGHDVASLLRDAVKRREEFDLDVVAVVNDTVGTMMTCAYEEPTCEIGLIVGTGTNACYMEEMKNVEMVEGNQGQMCINMEWGAFGDNGCLDDIRTDFDKVVDEYSLNSGKQRFEKMISGMYLGEIVRNILIDFTKKGFLFRGQISEPLKTRGIFETKFLSQIESDRLALLQVRAILQQLGLNSTCDDSILVKTVCGVVSKRAAQLCGAGMAAVVEKIRENRGLDHLNVTVGVDGTLYKLHPHFSRIMHQTVKELSPKCTVSFLLSEDGSGKGAALITAVGVRLRGDPSIA
B2: trypsin-treated HK-I (protein)
chain: B1 chain
B3: chymotrypsin-treated HK-I (protein)
chain: FTELKDDQVKKIDKYLYAMRLSDEILIDILTRFKKEMKNGLSRDYNPTASVKMLPTFVRSIPDGSEKGDFIALDLGGSSFRILRVQVNHEKNQNVSMESEIYDTPENIVHGSGTQLFDHVADCLGDFMEKKKIKDKKLPVGFTFSFPCRQSKIDEAVLITWTKRFKASGVEGADVVKLLNKAIKKRGDYDANIVAVVNDTVGTMMTCGYDDQQCEVGLIIGTGTNACYMEELRHIDLVEGDEGRMCINTEWGAFGDDGSLEDIRTEFDRELDRGSLNPGKQLFEKMVSGMYMGELVRLILVKMAKEGLLFEGRITPELLTRGKFNTSDVSAIEKDKEGIQNAKEILTRLGVEPSDVDCVSVQHICTIVSFRSANLVAATLGAILNRLRDNKGTPRLRTTVGVDGSLYKMHPQYSRRFHKTLRRLVPDSDVRFLLSESGTGKGAAMVTAVAYRLAEQHRQIEETLAHFRLSKQTLMEVKKRLRTEMEMGLRKETNSKATVKMLPSFVRSIPDGTEHGDFLALDLGGTNFRVLLVKIRSGKKRTVEMHNKIYSIPLEIMQGTGDELFDHIVSCISDFLDYMGIKGPRMPLGFTFSFPCHQTNLDCGILISWTKGFKATDCEGHDVASLLRDAVKRREEFDLDVVAVVNDTVGTMMTCAYEEPTCEIGLIVGTGTNACYMEEMKNVEMVEGNQGQMCINMEWGAFGDNGCLDDIRTDFDKVVDEYSLNSGKQRFEKMISGMYLGEIVRNILIDFTKKGFLFRGQISEPLKTRGIFETKFLSQIESDRLALLQVRAILQQLGLNSTCDDSILVKTVCGVVSKRAAQLCGAGMAAVVEKIRENRGLDHLNVTVGVDGTLYKLHPHFSRIMHQTVKELSPKCTVSFLLSEDGSGKGAALITAVGVRLRGDPSIA

Experiments:
[1] = biological target: E72Q-mVDAC1, purified recombinant
[2] = biological target: T1, VDAC of isolated rat mitochondria (liver, brain), Q9Z2L0
T1 chain: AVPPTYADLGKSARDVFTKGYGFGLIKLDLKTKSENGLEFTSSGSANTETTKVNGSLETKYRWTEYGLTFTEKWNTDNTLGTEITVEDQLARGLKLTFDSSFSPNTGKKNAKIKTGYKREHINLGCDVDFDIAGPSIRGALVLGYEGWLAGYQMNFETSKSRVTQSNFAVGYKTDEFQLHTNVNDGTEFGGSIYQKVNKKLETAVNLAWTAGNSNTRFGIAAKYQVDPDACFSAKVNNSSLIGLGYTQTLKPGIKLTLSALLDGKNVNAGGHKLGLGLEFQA

[3] = biological target: T2, native mVDAC1 (mouse VDAC1), purified recombinant
T2 chain: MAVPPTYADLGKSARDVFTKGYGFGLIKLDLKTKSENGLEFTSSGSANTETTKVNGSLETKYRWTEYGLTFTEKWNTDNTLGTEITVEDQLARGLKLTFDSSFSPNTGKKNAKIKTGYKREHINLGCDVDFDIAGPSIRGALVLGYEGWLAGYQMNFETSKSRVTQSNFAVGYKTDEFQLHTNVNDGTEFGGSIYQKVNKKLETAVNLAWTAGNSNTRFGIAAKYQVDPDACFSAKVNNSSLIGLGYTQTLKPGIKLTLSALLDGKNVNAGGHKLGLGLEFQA

Protein | VDAC1 channel closure in a planar lipid bilayer (currents before and 5 min after HK-I, 28.6 mU/ml) [1] | PTP opening (Ca2+ accumulation and swelling of energized mitochondria) [2] | release of cytochrome c from mitochondria (Western blot) [2] | VDAC1 channel closure in a planar lipid bilayer (currents before and 5 min after HK-I, 28.6 mU/ml) [3] | PTP opening (swelling of energized mitochondria) [2]
B1 | HK-I is able to close native VDAC1 but not mutated E72Q-VDAC1 (SEQ ID NO:43) | HK-I inhibited PTP opening | HK-I prevented the release of cytochrome c from mitochondria | HK-I is able to close native VDAC1 | –
B2 | – | – | – | – | The failure of non-binding species of HK, such as yeast HK, or trypsin- or chymotrypsin-treated HK-I (FIG. 2D) to prevent PTP opening
B3 | – | – | – | – | The failure of non-binding species of HK, such as yeast HK, or trypsin- or chymotrypsin-treated HK-I (FIG. 2D) to prevent PTP opening
